T1: His-tagged PTB domain of RABGAP1
T1 chain: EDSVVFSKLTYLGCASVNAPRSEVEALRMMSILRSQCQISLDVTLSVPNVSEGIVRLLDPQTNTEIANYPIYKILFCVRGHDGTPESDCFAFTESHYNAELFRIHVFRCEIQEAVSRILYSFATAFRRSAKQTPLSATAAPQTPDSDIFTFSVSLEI

T2: GST fused to the APP cytosolic tail mutant FFE689-91AAA (UniProt P05067-4 649-695, FFE689-91AAA)
T2 construct: amyloid precursor protein (APP), cytosolic tail, residues 649-695; numbers count on: APP isoform 695; also called FFE689-9AAA; source: T7 express E. coli; clarified lysate loaded on glutathione-Sepharose 4B beads and washed
T2 chain (looked up): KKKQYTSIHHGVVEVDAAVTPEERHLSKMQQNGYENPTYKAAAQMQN


Columns and labels:
[1] = target: T1, His-tagged PTB domain of RABGAP1; test: ITC; APP peptides titrated into about 100 μM His-PTB of RABGAP1 in 2.4 μl injections at 20 °C; 100 mM Tris pH 7.4, 300 mM NaCl, 1 mM TCEP; Nano ITC; three independent runs for the WT peptide; conditions: both partners purified
[2] = target: T2, GST fused to the APP cytosolic tail …; test: pull-down; GST-APP tail WT, tail mutants or GST only on glutathione-Sepharose beads, incubated overnight at 4 °C with pre-cleared HEK293T lysate; eluted with 1.5 M NaCl; eluates immunoblotted for the hits; N = 3; conditions: one partner purified

| Binder | Kd [1] | stoichiometry N [1] | fold change of binding against the WT tail [2] |
| --- | --- | --- | --- |
| MQQNGYENPTYKFFEQMQN (peptide, UniProt P05067-4 677-695, looked up, amyloid precursor protein (APP), cytosolic tail from M677 (MQQ...); numbers count on: APP isoform 695; The peptide probably runs to the C-terminus of APP695 (residue 695); also called APPwt; WT APP peptide) [WT APP tail peptide starting from the MQQ sequence at position 677] | ~61 µM | 1 | – |
| RABGAP1 (natural protein, also called GAPCenA; TBC1D11; source: endogenous, HEK293T lysate) not shown | – | – | ~3 fold |
